According to PMC8485325, “Penetrating the Blood-Brain Barrier with New Peptide–Porphyrin Conjugates Having anti-HIV Activity” (Bioconjugate Chemistry, 2021):
Ends that are not written are not given here.

What was measured:
[1] = test system: bEnd.3 cell monolayers
Experimental: Figure 4 PPCs translocation across a bEnd.3 in vitro BBB model. (A) bEnd.3 in vitro BBB model transwell system. The insert, or apex, corresponds to the blood side, while the base (bottom chamber) corresponds to the brain side. (B) After formation of a monolayer, 10 μM of each conjugate was added to the apical side of the tissue culture inserts. After incubation for 24 h, samples from the basolateral side were collected, and the percentage of translocation of each conjugate (black) was calculated. FD4 permeability (gray) was measured to determine monolayer integrity post-PPCs translocation.
After 24 h incubation with conjugates, an in vitro integrity assay was performed.[19] Briefly, cells were washed twice with PBS and once with DMEM medium without phenol red. Then, previously diluted 4 kDa fluorescein isothiocyanate-dextran (FD4) (Sigma-Aldrich, Spain) in DMEM without phenol red to an absorbance of 0.1 was added to the apical side and incubated for 2 h. Samples were collected from the apical and basolateral side, and fluorescence intensity was measured with λext = 493 nm and λem = 520 nm, using a Varioskan Lux plate reader. The integrity of the barrier was determined as follows: [drawing 2] 2 where Fi is the recovered fluorescence intensity, Fcells is the recovered fluorescence intensity from cells without FD4 incubation, FFD4 is the fluorescence intensity of total FD4 initially added to the transwell apical side, and FMedium is the fluorescence intensity of DMEM medium without phenol red.

[2] = test system: human erythrocytes; test: Hemolysis assay; format: cell-based
Experimental: Plates were incubated for 1 h at 37 °C with 100 rpm stirring, then centrifuged for 5 min at 4000 rpm, 4 °C, and supernatants were transferred to a 96-well flat-bottom polystyrene plate (Corning). Hemolysis was assessed by hemoglobin (Hb) release, measured by absorbance at 415 nm in a Varioskan LUXTM microplate reader (Thermo Fisher Scientific, Inc.). As porphyrin and Hb spectra are partially overlapping, to exclude porphyrin interference in Hb quantification a blank reading of each PPC (no hRBCs, TN buffer +1% DMSO) was subtracted from each measurement. TN buffer (+1% DMSO, no conjugate) and hRBCs with 1% Triton X-100 were used as negative and positive controls, respectively. Hemolysis (%) was determined using the following equation: [drawing 6] 6 where Abstreated is the absorbance of hRBC treated with the conjugates, Absconjugate is the absorbance from each conjugate concentration without hRBCs, AbsTriton is the absorbance of Triton X-100 treated hRBCs, and Absbuffer is the absorbance of TN buffer alone. HC50 values were determined by GraphPad Prism 8 software using a log(inhibitor) vs normalized response (variable slope). Experiments were performed using 3 different blood donors.

[3] = test system: bEnd.3 cells; test: Cell viability assay (CellTiter-Blue); format: cell-based, murine
Experimental: bEnd.3 cells were plated in fibronectin precoated 96-well flat-bottom clear black polystyrene plate (Corning, New York, USA) as previously described. Cells were then cultured in complete medium at 37 °C in a 5% CO2 atmosphere, with medium replaced every 2 days. […] Viability was evaluated by the CellTiter-Blue assay (Promega, Wisconsin, USA), based on resazurin reduction into highly fluorescent resorufin by metabolically active cells. By distinguishing metabolic from nonmetabolic cells, cytotoxicity can be indirectly determined. After incubation, cells were washed with PBS, pH 7.4, and 15 μL of CellTiterBlue reagent in 100 μL of complete medium was added to the cells and incubated for 1.5 h at 37 °C in 5% CO2. Fluorescence was measured at 590 nm, with excitation at 560 nm, using an Infinite F200 plate reader (Tecan, Switzerland). Complete medium and medium containing 0.25% Triton X-100 were used as positive and negative controls (100% and 0% viability), respectively. Cell viability (%) was determined using the following equation: [drawing 5] 5 where […] is the fluorescence emission of conjugate-treated cells, Fnontreated is the fluorescence emission of the control nontreated cells, and Fblank is the fluorescent emission of CellTiter reagent in complete medium without cells.

| Substance | % Base (RFI), FD4 Permeability (monolayer integrity post-translocation) [1] [%] | Hemolytic activity (in words) [2] | CC50 [3] [µM] |
| --- | --- | --- | --- |
| MP-P5: mesoporphyrin IX coupled to the N-terminal amino group of peptide P5 (SGTQEEY-amide) ({mesoporphyrin IX}-SGTQEEY-NH2) | 9.4 | totally lacked hemolytic activity | > 50 |
| P4-MP: mesoporphyrin IX coupled to the C-terminal Lys side chain of peptide P4 (AGILKRWK-amide) (AGILKRWK(mesoporphyrin IX)-NH2) | 15.3 | totally lacked hemolytic activity | > 50 |
